Here are results for ten molecules from patent publication US20260209316A1 (US Dept. of Health and Human Services, published 2026).

For assay [1], the target named is T1, mucin domain-deleted Sudan GP (GPdMuc) (Sudan virus (SUDV), UniProt Q7T9D9 33-632).
T1 construct: also called Sudan GPdMuc; GP(S)dMuc
Kind of assay: BLI competition on Sudan GPdMuc (lower table); competitor mAb166.

Assay [2] has as its target T1, mucin domain-deleted Sudan GP (GPdMuc). The assay is described as follows: BLI competition on Sudan GPdMuc (lower table); competitor 15H10.
For assay [3] the target is unchanged. The assay is described as follows: BLI competition on Sudan GPdMuc (lower table); competitor 316L.
For assay [4] the target is unchanged. Kind of assay: BLI competition on Sudan GPdMuc (lower table); competitor 16F6.
Assay [5] shares this target. The assay is described as follows: ELISA on coated GP. (In general: An ELISA detects its analyte on a solid surface through an enzyme-linked reagent.)
Assay [6] has the same target. Kind of assay: ELISA on coated GP. This is another data set of the same source.
Assay [7] has the same target. Kind of assay: BLI competition on Sudan GPdMuc (upper table); competitor 15H10.
Assay [8] shares this target. The assay is described as follows: BLI competition on Sudan GPdMuc (upper table); competitor mAb166.
Assay [9] has the same target. Kind of assay: BLI competition on Sudan GPdMuc (upper table); competitor 16F6.
For assay [10] the target is unchanged. The assay is described as follows: BLI competition on Sudan GPdMuc (upper table); competitor 316L.

Read-outs that look alike come from different tables or passages of the source.

B1: antibody 294S (antibody, V domains shown)
VH: QVQLQESGPGLVKPSQTLSLTCTVSGGSISSGGYHWSWIRQHPGKGLEWIGNIYYNGRTYYNPSLKSRVTISVDTSENEFSLKLSSVTAADTAVYYCARDRRRPRIGHDYGMDVWGQGTKVIVSS
VL: DIQMTQSPSSLSASVGDRVTISCRASQSISNFLNWYQQKPGQAPKLLIYTASNLQSGVPSRFSGSGSGTDFTLTISSLQPEDFATYYCQQIYNTGMYSFGQGTKLEIKR
In general, EC50 refers to the concentration that produces a half-maximal response. A lower EC50 goes with greater potency. For B1, the “% inhibition of binding” value amounted to 9.71% in assay [1], 15.7% in assay [2], 8.76% in assay [3] and 13.3% in assay [4]. In assay [5], this molecule yielded an EC50 of 0.0266 µg/mL.

B2: antibody 291S (antibody, V domains shown)
VH: QVQLQESGPGLVKPSQTLSLTCTVSGGSFSSGFYWSWIRQRPGKGLEWVGYTYYSGSTYYNPSLQSRVTISVDTSKNQFSLNLSSVTAADTAVYHCARADYGGLFDYWGQGILVTVSS
VL: QSVLTQPSSLSASPGASASLTCTLRSGINVGTYRIFWYQQKPGSPPQFLLRYNSDSDKQQGSGVPSRFSGSKDASANAGILLISGLQSEDEADYYCMIWHTSAWVFGGGTKLTVL
Regarding B2, in assay [6], the EC50 was found to be 0.0519 µg/mL.

B3: antibody 541S (antibody, V domains shown)
VH: QVQLVQSGAEVKKPGASVKVSCKASGYTFTNYAITWVRQAPGQGLEWMGWISAFNGQINYAQKFQGRVAMTTDTSTSTAYMELRSLRSDDTAVYYCARAPPMWFSGAKFDYWGQGTLVTVSS
VL: QSVLTQPPSVSGTPGQRVTISCSGSSSNIGSNTVNWYQQLPGTAPKLLIYSNDQRPSGVPDRFSGSKSGTSASLAISGLRSEDEADYYCAAWDETLRRVFGGGTRLTVL
For the molecule B3, the “% inhibition of binding” value in [7] was 18.6%; in [8], 15.7%; in assay [9], 72.1%; in assay [10], 16.2%. The EC50 in assay [5] came out at 0.23 µg/mL.

B4: antibody 523S (antibody, V domains shown)
VH: QVQLVQSGAELKKPGASVKVSCKASGYTFSDHYVHWVRQAPGQGLEWMGRINPNSGGTNYAQRFLGRVTMTRDASISTAYLDLSSLRSDDTAVYYCARSSSSWSGHYYYYMDVWGKGTTVTVSS
VL: QSVLTQPPSVSAAPGQRVTISCSGSTSNIASNFVSWYQQLPGTAPKLLIYDNHKRPSGIPDRFSGSKSGTSATLGITGLQTGDEADYYCGTWDSSLSAGVFGGGTKVTVLG
As to B4, the “% inhibition of binding” value in [7] turned out to be 17.4%; in assay [8] it was 5.74%; in assay [9], 90.8%; in assay [10], 9.35%. Also, in [5], a half-maximal effect (EC50) was put at 0.378 µg/mL.

B5: antibody 233S (antibody, V domains shown)
VH: EVQLVESGGGLGQPGGSLRLSCAASGFKFKIFGMNWVRQAPGKGLEWVSYISSRSSIIYYADSVKGRFTISRDDATNSLFLQMNSLRDEDTAMYYCVRDYNLIDFVWGSLFDYWGQGILVTVSS
VL: AIRMTQSPSSLSASTGDSVTITCRASQNIASYLAWYQQIPGKAPKLLIYVASTLQSGVPSRFSGSGSGTDFTLTISSLQSEDFATYYCQQYYRYPPTFGQGTKVEIK
On to B5, for which the “% inhibition of binding” value in assay [1] worked out at 14.4%; in assay [2], 29.6%; in [3], 12.5%; in [4] it was 22.9%. In addition, the EC50 in assay [5] turned out to be 0.195 µg/mL.

B6: antibody 545S (antibody, V domains shown)
VH: QVQLQESGPGLVKPSQTLSLTCTVSGGSISRAGSYWSWIRQHPGKGLEWIGYISYSGSTYYNPSLESRVTMSLDTSKSQFSLKLSSVTAADTAVYYCAREDRSGFYGLDVWGQGTTVTVSS
VL: QSVLTQPSSLSASPGATASLTCTLRSGINVDTYRIYWYQQKPGSPPQYLLRYKSDSDKHQGSGVPSRFSGSKDASANAGILLISGLQSADEADYYCMIWHSGAWVFGGGTKLTVQG
notes: also called 545S mAb
In assay [6], B6 returned an EC50 of 0.0233 µg/mL.

B7: antibody 573S (antibody, V domains shown)
VH: EVQLVESGGGLVKPGGSLRLSCAASGFTFSSYTMNWVRQAPGKGLEWVSCIRSSSSDKYYADSVKGRFTISRDNTKNSLYLQMNSLRADDTAVYYCARDLGGANNRYYFDYGMDVWGQGTTVTVSS
VL: EIVMTQSPATLSVSPGGRATLSCRASQSVYTNLAWYQQKPGQAPRLLIYDASTRATGIPARFSGSGSGTEFTLTISSLQCEDFAVYYCQHYNNWPLYTFGQGTKLEIK
B7: the “% inhibition of binding” value amounted to 15.8% in assay [7], 8.08% in assay [8], 76.2% in [9] and 6.38% in [10]. Besides, it took 0.101 µg/mL to reach a half-maximal effect in assay [5] (EC50).

B8: antibody 241S (antibody, V domains shown)
VH: QVQLVQSGSELKKPGASVKVSCKASGYTFTSYTVNWVRQAPGQGLEWMGWINTNTGNPTYAQGFTGRFVFSSDTSVSTAYLQISDLKAEDTAMYYCARHVAYDLWSGHTVTFDHWGQGTLVTVSS
VL: QSALTQPPSASGSPGQSVTISCTGTSSDVGAYNYVSWYQQHPGKAPKLIIYEVTKRPSGVPDRFSGSKSGNTASLTVSGLQAEDEADYYCSSKAGGKTYVFGTGTKVTVL
Regarding B8, the “% inhibition of binding” value was found to be 10.1% in [1], 38.3% in assay [2], 10.3% in [3] and 28.2% in assay [4]. This molecule also had an EC50 in [5] of 0.331 µg/mL.

B9: antibody 503S (antibody, V domains shown)
VH: QVQLVQSGAEVKKPGASVRVSCKASGYTFTSYYMHWVRQAPGQGLEWMGQINPSGGTTRYERKFQGRITVTRDTSTSTVYLELSSLRSEDTASYFCACLRDKVTYYDLWSGVDSVWGQGTLVTVSS
VL: DIQMTQSPSSLSASVGDRVTITCRASQDISTWLAWYQQKPEKAPKSLIYAASTLETGVPSRFSGSGSGTDFTLTISSLQPEDFATYYCEQYNGFPRTFGQGTKLDIK
On to B9, for which the “% inhibition of binding” value in assay [1] came out at 20.7%; in assay [2] it was 27.8%; in assay [3], 23.3%; in assay [4], 24.9%. Moreover, a half-maximal effect in assay [5] (EC50) was put at 0.499 µg/mL.

B10: antibody 354S (antibody, V domains shown)
VH: QVQLVQSGAEVKKPGASVKVSCKASGYSFASYYIHWVRQAPGQGLEWMGIINPSGGTTSYAQKFQGRVTMTRDTSTSTVYMELSSLGSEDTAVYYCARIVDRVTIYLNGVDNYWGQGTLVTVSS
VL: EIVMTQSPATLSVSPGERVTLSCRASQSVSSNLAWFQQTPGQAPRLLIYGASTRASGVPARFSGSGSGTEFTLTISSLQSEDFAVYYCLQYNNWPPGWKYGFGQGTKLEIK
For the molecule B10, the “% inhibition of binding” value in assay [1] was found to be 16.2%; in assay [2], 18.9%; in assay [3] it was 17.9%; in [4], 18.7%. In addition, the EC50 in assay [5] turned out to be 0.0404 µg/mL.
